Reference: patent publication US20220396635A1 (UNIVERSIT T STUTTGART, published 2022)

Legend:
[1] = target: T1, CEA (UniProt P06731 35-685); assay: flow cytometry, serial dilution on LIM1215 cells (CEA-expressing), PE anti-human Fc detection
T1 construct: whole, on cells
T1 sequence (looked up): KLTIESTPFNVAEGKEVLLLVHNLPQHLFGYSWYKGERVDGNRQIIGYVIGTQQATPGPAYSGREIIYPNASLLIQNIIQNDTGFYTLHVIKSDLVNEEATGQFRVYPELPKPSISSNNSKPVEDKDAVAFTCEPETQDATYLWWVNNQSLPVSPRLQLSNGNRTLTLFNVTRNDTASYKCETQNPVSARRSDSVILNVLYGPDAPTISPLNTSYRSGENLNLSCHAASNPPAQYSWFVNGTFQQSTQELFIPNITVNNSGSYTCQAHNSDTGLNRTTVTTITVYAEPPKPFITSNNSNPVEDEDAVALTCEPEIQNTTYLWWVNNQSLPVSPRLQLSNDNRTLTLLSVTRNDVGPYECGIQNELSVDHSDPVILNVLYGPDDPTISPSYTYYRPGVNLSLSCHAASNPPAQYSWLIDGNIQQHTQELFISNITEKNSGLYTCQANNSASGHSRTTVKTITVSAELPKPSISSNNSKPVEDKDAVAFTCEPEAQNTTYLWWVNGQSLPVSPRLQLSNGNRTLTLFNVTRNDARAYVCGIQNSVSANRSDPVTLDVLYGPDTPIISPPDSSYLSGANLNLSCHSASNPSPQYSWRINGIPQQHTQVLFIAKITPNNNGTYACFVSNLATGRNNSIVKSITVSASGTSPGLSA
Description: (§1) Binding of trivalent, bispecific fusion proteins to CEA-expressing (LIM1215) and CD3-expressing (Jurkat) cell lines was analyzed by flow cytometry. 2×10⁵ cells/well were incubated with a serial dilution of trivalent, bispecific antibodies for 1 h at 4° C. followed by detection using a PE-conjugated anti-human Fc antibody (Jackson ImmunoResearch Laboratories Inc). […] Regarding the CEA-expressing cell line LIM1215, the trivalent, bispecific antibodies bound with EC₅₀ values in the nanomolar range (FIG. 16A) (Table 9).

[2] = target: T2, CD3 (UniProt P07766 23-207); assay: flow cytometry, serial dilution on Jurkat cells (CD3-expressing), PE anti-human Fc detection
T2 construct: whole, on cells; on cells it stands in the TCR/CD3 complex; also called CD3 on Jurkat cells
Description: as §1

B1: scDb/scFv-Fc (1-1)+2, trivalent bispecific anti-CEAxanti-CD3 (bispecific antibody)
chain 1: QVKLQQSGAELVRSGTSVKLSCTASGFNIKDSYMHWLRQGPEQGLEWIGWIDPENGDTEYAPKFQGKATFTTDTSSNTAYLQLSSLTSEDTAVYYCNEGTPTGPYYFDYWGQGTTVTVSSGGGGSDIELTQSPAIMSASPGEKVTITCSASSSVSYMHWFQQKPGTSPKLWIYSTSNLASGVPARFSGSGSGTSYSLTISRMEAEDAATYYCQQRSSYPLTFGAGTKLELKRGGGGSGGGGSGGGGSQVKLQQSGAELVRSGTSVKLSCTASGFNIKDSYMHWLRQGPEQGLEWIGWIDPENGDTEYAPKFQGKATFTTDTSSNTAYLQLSSLTSEDTAVYYCNEGTPTGPYYFDYWGQGTTVTVSSGGGGSDIELTQSPAIMSASPGEKVTITCSASSSVSYMHWFQQKPGTSPKLWIYSTSNLASGVPARFSGSGSGTSYSLTISRMEAEDAATYYCQQRSSYPLTFGAGTKLELKRAAADKTHTCPPCPAPPVAGPSVFLFPPKPKDTLMISRTPEVTCVVVDVSHEDPEVKFNWYVDGVEVHNAKTKPREEQYNSTYRVVSVLTVLHQDWLNGKEYKCKVSNKGLPSSIEKTISKAKGQPREPQVCTLPPSRDELTKNQVSLSCAVKGFYPSDIAVEWESNGQPENNYKTTPPVLDSDGSFFLVSKLTVDKSRWQQGNVFSCSVMHEALHNHYTQKSLSLSPGK
chain 2: DIQMTQSPSSLSASVGDRVTITCRASQDIRNYLNWYQQKPGKAPKLLIYYTSRLHSGVPSRFSGSGSGTDFTFTISSLQPEDIATYYCQQGNTLPWTFGQGTKLEIKRGGGGSGGGGSGGGGSQVQLVQSGAEVKKPGSSVKVSCKASGGTFSGYTMNWVRQAPGQGLEWMGLINPYKGVSTYNGKFKDRVTITADKSTSTAYMELSSLRSEDTAVYYCARSGYYGDSDWYFDVWGQGTLVTVSSAAADKTHTCPPCPAPPVAGPSVFLFPPKPKDTLMISRTPEVTCVVVDVSHEDPEVKFNWYVDGVEVHNAKTKPREEQYNSTYRVVSVLTVLHQDWLNGKEYKCKVSNKGLPSSIEKTISKAKGQPREPQVYTLPPCRDELTKNQVSLWCLVKGFYPSDIAVEWESNGQPENNYKTTPPVLDSDGSFFLYSKLTVDKSRWQQGNVFSCSVMHEALHNHYTQKSLSLSPGK
notes: also called scDbCEAxCEA-Fc(hole)Δab + scFvhuU3-Fc(knob)Δab
B1 gave an EC50 [1] of 2.4 nM and an EC50 [2] of 2.8 nM.

B2: scDb/Fab-Fc (1-1)+2, trivalent bispecific anti-CEAxanti-CD3 (bispecific antibody)
chain: QVKLQQSGAELVRSGTSVKLSCTASGFNIKDSYMHWLRQGPEQGLEWIGWIDPENGDTEYAPKFQGKATFTTDTSSNTAYLQLSSLTSEDTAVYYCNEGTPTGPYYFDYWGQGTTVTVSSGGGGSDIELTQSPAIMSASPGEKVTITCSASSSVSYMHWFQQKPGTSPKLWIYSTSNLASGVPARFSGSGSGTSYSLTISRMEAEDAATYYCQQRSSYPLTFGAGTKLELKRGGGGSGGGGSGGGGSQVKLQQSGAELVRSGTSVKLSCTASGFNIKDSYMHWLRQGPEQGLEWIGWIDPENGDTEYAPKFQGKATFTTDTSSNTAYLQLSSLTSEDTAVYYCNEGTPTGPYYFDYWGQGTTVTVSSGGGGSDIELTQSPAIMSASPGEKVTITCSASSSVSYMHWFQQKPGTSPKLWIYSTSNLASGVPARFSGSGSGTSYSLTISRMEAEDAATYYCQQRSSYPLTFGAGTKLELKRAAADKTHTCPPCPAPPVAGPSVFLFPPKPKDTLMISRTPEVTCVVVDVSHEDPEVKFNWYVDGVEVHNAKTKPREEQYNSTYRVVSVLTVLHQDWLNGKEYKCKVSNKGLPSSIEKTISKAKGQPREPQVCTLPPSRDELTKNQVSLSCAVKGFYPSDIAVEWESNGQPENNYKTTPPVLDSDGSFFLVSKLTVDKSRWQQGNVFSCSVMHEALHNHYTQKSLSLSPGK
heavy: QVQLVQSGAEVKKPGSSVKVSCKASGGTFSGYTMNWVRQAPGQGLEWMGLINPYKGVSTYNGKFKDRVTITADKSTSTAYMELSSLRSEDTAVYYCARSGYYGDSDWYFDVWGQGTLVTVSSASTKGPSVFPLAPSSKSTSGGTAALGCLVKDYFPEPVTVSWNSGALTSGVHTFPAVLQSSGLYSLSSVVTVPSSSLGTQTYICNVNHKPSNTKVDKKVEPKSCDKTHTCPPCPAPPVAGPSVFLFPPKPKDTLMISRTPEVTCVVVDVSHEDPEVKFNWYVDGVEVHNAKTKPREEQYNSTYRVVSVLTVLHQDWLNGKEYKCKVSNKGLPSSIEKTISKAKGQPREPQVYTLPPCRDELTKNQVSLWCLVKGFYPSDIAVEWESNGQPENNYKTTPPVLDSDGSFFLYSKLTVDKSRWQQGNVFSCSVMHEALHNHYTQKSLSLSPGK
light: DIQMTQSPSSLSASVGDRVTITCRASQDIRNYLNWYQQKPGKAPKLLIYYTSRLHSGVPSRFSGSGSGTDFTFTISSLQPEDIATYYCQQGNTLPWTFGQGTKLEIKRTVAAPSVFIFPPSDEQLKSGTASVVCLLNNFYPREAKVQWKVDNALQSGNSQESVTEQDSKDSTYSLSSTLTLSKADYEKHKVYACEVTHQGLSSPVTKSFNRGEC
notes: also called scDbCEAxCEA-Fc(hole)Δab + FdhuU3-Fc(knob)Δab + VLhuU3-CLK
For B2, the EC50 [1] was 8.5 nM and the EC50 [2] was 0.8 nM.
